For this assay, the target named is serum antibodies (IgG) of Sardinian T1D patients, Example 1 (n=34; Ab+ sera) (human). Put plainly: competition ELISA on MAP3865c125-133-coated plates, sera pre-adsorbed with saturating peptide. (In an ELISA, binding on a coated surface is turned into a signal by an enzyme label.)

Molecule MIAVALAGL [MAP3865c125-133 peptide (…)] had a percent inhibition of 57 to 89%.
